Where “and” joins values, the source holds several entries; their conditions need not be identical. Equal entries are not always repeated.
B1: U6 snRNA promoter in DNA origami force clamp (dsDNA)
DNA 1: CGGACCAAGATGATTTGATTGAAGGGCTTAAAATAGGTGTTAGAGTAACCCTTGA
DNA 2: TCAAGGGTTACTCTAACACCTATTTTAAGCCCTTCAATCAAATCATCTTGGTCCG

Columns and labels:
[1] = target: TBP;TFIIA (single chain) (Homo sapiens;Homo sapiens) (UniProt P20226+P52655+P52657); test: smFRET; details: Binding buffer and temperature not in the material (origami folding buffer: 10 mM Tris pH 7.6, 1 mM EDTA, 20 mM MgCl2, 5 mM NaCl); TFIIB 0.2 uM, TFIIA 2 uM …
[2] = target: TBP;TFIIA (single chain);TFIIB (Homo sapiens;Homo sapiens;Homo sapiens?) (UniProt P20226+P52655+P52657+Q00403); test: smFRET; details: Binding buffer and temperature not in the material (origami folding buffer: 10 mM Tris pH 7.6, 1 mM EDTA, 20 mM MgCl2, 5 mM NaCl); TFIIB 0.2 uM, TFIIA 2 uM …
TBP = TBP (Homo sapiens, UniProt P20226 169-339); test: smFRET; TIRF dwell times; 0 pN; 20 nM TBP; E=0.39; Binding buffer and temperature not in the material (origami folding buffer: 10 mM Tris pH 7.6, 1 mM EDTA, 20 mM MgCl2, 5 mM NaCl); TFIIB 0.2 uM, TFIIA 2 uM, other proteins 20 nM; details: protein: recombinant; tags: N-terminal His; label: ATTO 532 and ATTO 647N on S17 strand (positions by colour only); ds region (U6_comp) within ssDNA spring
Sequence of TBP (P20226 169-339): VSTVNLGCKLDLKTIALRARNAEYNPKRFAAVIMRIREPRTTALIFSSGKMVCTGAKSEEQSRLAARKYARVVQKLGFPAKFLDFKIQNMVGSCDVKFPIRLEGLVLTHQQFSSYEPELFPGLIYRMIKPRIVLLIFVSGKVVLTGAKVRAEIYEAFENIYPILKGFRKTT

Sequence of TBP;TFIIA (single chain);TFIIB (Homo sapiens;Homo sapiens;Homo sapiens?) (P20226 whole entry, chain 1 of 4): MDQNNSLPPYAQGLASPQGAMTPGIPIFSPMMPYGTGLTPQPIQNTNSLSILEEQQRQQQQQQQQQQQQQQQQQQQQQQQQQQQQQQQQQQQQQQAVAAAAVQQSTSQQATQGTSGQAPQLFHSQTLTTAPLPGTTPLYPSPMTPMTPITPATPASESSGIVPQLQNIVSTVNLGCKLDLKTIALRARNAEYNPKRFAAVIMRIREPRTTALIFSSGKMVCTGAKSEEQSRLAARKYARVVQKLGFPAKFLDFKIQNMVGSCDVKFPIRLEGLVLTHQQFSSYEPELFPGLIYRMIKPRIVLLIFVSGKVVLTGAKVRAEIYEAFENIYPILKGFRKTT
Sequence of TBP;TFIIA (single chain);TFIIB (Homo sapiens;Homo sapiens;Homo sapiens?) (P52655 whole entry, chain 2 of 4): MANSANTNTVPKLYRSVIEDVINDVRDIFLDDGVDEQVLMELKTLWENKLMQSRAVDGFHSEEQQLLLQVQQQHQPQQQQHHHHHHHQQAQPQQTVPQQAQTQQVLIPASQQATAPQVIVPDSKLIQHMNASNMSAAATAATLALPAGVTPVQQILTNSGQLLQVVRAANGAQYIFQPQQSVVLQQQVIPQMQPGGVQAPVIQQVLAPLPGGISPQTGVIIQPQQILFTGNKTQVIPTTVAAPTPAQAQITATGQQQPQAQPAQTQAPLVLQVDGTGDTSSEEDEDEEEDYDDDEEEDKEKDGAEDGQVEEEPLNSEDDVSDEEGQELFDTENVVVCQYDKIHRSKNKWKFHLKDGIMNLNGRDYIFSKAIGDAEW
Sequence of TBP;TFIIA (single chain);TFIIB (Homo sapiens;Homo sapiens;Homo sapiens?) (P52657 whole entry, chain 3 of 4): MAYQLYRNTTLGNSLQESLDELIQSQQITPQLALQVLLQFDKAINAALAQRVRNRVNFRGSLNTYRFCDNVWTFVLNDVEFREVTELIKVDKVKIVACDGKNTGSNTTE
Sequence of TBP;TFIIA (single chain);TFIIB (Homo sapiens;Homo sapiens;Homo sapiens?) (Q00403 whole entry, chain 4 of 4): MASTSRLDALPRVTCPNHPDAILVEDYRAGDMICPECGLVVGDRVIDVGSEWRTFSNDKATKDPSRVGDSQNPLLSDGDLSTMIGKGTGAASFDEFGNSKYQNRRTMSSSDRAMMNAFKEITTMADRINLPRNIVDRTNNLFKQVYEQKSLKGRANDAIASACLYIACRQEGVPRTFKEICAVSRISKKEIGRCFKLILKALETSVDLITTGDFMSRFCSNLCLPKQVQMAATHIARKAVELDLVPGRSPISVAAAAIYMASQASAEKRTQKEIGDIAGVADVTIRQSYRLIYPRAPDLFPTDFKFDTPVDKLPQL
Sequence of TBP;TFIIA (single chain) (Homo sapiens;Homo sapiens) (P20226 whole entry, chain 1 of 3): as the sequence (P20226 whole entry, chain 1 of 4) above
Sequence of TBP;TFIIA (single chain) (Homo sapiens;Homo sapiens) (P52655 whole entry, chain 2 of 3): as the sequence (P52655 whole entry, chain 2 of 4) above
Sequence of TBP;TFIIA (single chain) (Homo sapiens;Homo sapiens) (P52657 whole entry, chain 3 of 3): as the sequence (P52657 whole entry, chain 3 of 4) above

| Molecule | binding signal (% high FRET (bent)) [1] | binding signal (% high FRET (bent)) [2] | binding result (TBP) |
| --- | --- | --- | --- |
| AAGCTTTAGGGCGCCTATAAAAGGGGGTTCGGGCG (double strand) [AdMLP promoter in DNA origami force clamp] | 26 | 72 and 53 |  |
| B1 |  |  | binds |

Source: paper PMC7275037, “DNA origami-based single-molecule force spectroscopy elucidates RNA Polymerase III pre-initiation complex stability”
